Data taken from publication doi:10.1101/2025.03.26.644761 (bioRxiv, 2025).
Changes are numbered by the printed parent chain.

What was measured:
[1] = molecular target: the molecule itself; test: single molecule fluorescence
[2] = molecular target: T1, His6-YPet-mRIPK3_(379-486) (mouse, UniProt Q9QZL0 379-486); test: SDS semi-denaturing agarose gel electrophoresis
T1 sequence (looked up): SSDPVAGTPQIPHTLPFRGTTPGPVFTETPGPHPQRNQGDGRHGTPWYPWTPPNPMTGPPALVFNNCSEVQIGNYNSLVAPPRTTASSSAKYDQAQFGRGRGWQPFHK

[3] = molecular target: the molecule itself; test: solid-state NMR of homomeric fibrils
[4] = molecular target: T2, His6-YPet-hRIPK3_(387–518) (human, UniProt Q9Y572 387-518); test: Two-Colour Coincidence Detection spectroscopy
T2 sequence (looked up): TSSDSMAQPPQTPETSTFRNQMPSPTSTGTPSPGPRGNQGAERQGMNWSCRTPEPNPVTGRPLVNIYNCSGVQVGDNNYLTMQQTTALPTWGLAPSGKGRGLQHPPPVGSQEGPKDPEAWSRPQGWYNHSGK

[5] = molecular target: the molecule itself; test: Thioflavin T fluorescence + negative stain transmission electron microscopy

B1: His6-M45_(1–90)-mCherry, wild type (domain or fragment, murine cytomegalovirus (MCMV), UniProt Q06A28 1-90, looked up)
chain: MDRQPKVYSDPDNGFFFLDVPMPDDGQGGQQTATTAAGGAFGVGGGHSVPYVRIMNGVSGIQIGNHNAMSIASCWSPSYTDRRRRSYPKT
- binding result [1]: binds
- binding result [2]: binds

B2: M45_(1-90), RHIM-containing N-terminal region of MCMV M45 (viral inhibitor of RIP activation), tag removed (domain or fragment, murine cytomegalovirus (MCMV), UniProt Q06A28 1-90, looked up)
chain: B1 chain
- binding result [3]: binds

B3: His6-M45_(1–90)-mCherry, AAAA mutant C (domain or fragment, murine cytomegalovirus (MCMV), UniProt Q06A28 1-90, looked up)
chain: B1 chain with I61A, Q62A, I63A, G64A
- binding result [4]: binds

B4: His6-M45_(1–90)-mCherry, AAAA mutant D (domain or fragment, murine cytomegalovirus (MCMV), UniProt Q06A28 1-90, looked up)
chain: B1 chain with N65A, H66A, N67A
- binding result [4]: binds

B5: His6-M45_(1–90)-mCherry, AAAA mutant A (domain or fragment, murine cytomegalovirus (MCMV), UniProt Q06A28 1-90, looked up)
chain: B1 chain with R53A, I54A, M55A, N56A
- binding result [5]: binds
- binding result [4]: binds

B6: His6-M45_(1–90)-mCherry, AAAA mutant E (domain or fragment, murine cytomegalovirus (MCMV), UniProt Q06A28 1-90, looked up)
chain: B1 chain with M69A, S70A, I71A
- binding result [4]: binds

B7: His6-M45_(1–90)-mCherry, AAAA mutant B (domain or fragment, murine cytomegalovirus (MCMV), UniProt Q06A28 1-90, looked up)
chain: B1 chain with G57A, V58A, S59A, G60A
- binding result [4]: binds
- binding result [1]: binds

B8: RIPK3_(387-518), RHIM-containing region of human RIPK3, tag removed (domain or fragment, UniProt Q9Y572 387-518, looked up)
chain: T2 sequence (looked up)
- binding result [3]: binds
